Data reported in PMC4899731.

Biological target: F-actin (filamentous actin) of the Actin Binding Protein Biochem Kit (BK013, Cytoskeleton) (UniProt P60709)
Test: co-sedimentation; F-actin spin-down assay with the Actin Binding Protein Biochem Kit (BK013, Cytoskeleton), according to manufacturer instructions; ultracentrifugation, SDS-PAGE, Coomassie staining, signals quantified

**Q.** “cyclin A2-GST (glutathione S-transferase) (from UniProt P20248 1-432) (natural protein)” was tested. Which percent detected in the pellet with F-actin did it give?
**A.** 37%
